Measured values reported in PMC10760634 (Genes & Development, 2023).

Target: UBE2D2 (wild type) (UniProt P62837 1-147)
Experiment: ITC

UBE2D2 (wild type), sequence (P62837 whole entry): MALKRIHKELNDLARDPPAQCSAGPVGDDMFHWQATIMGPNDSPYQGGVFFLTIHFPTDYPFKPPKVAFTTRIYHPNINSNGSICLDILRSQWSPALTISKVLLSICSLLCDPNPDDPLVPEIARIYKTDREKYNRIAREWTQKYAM

B1: PHF7 (mPHF7 28–307) (domain or fragment)
chain: SSSPVCLLCLQEPGDPEKLGEFLQKDNLCVHYFCLILSSRLPQKGQPNRGLHGFMPEDIKREAVRASKKICFVCKKKGAAIRCQNDQCVQNFHLPCGQERGCLSQFFGEYKSYCRKHRPTQNIHQGSLGEESCVLCCENLSRTSVENIQSPCCSQAIYHRKCIQKYAHTSAKHFFKCPQCNNREEFPQEMLRMGIHIPDRDAAWELEPGAFSELYQRYRHCDAPICLYEQGRDSFEDEGRWRLILCATCGSHGTHRDCSSLRPNSKKWECNECLPASTTS
modifications: RED-NHS dye label (in the MST assay only)
**Q.** Does B1 bind?
**A.** Result: binds
